This is an account of results in the supplement of paper PMC12042874.

± gives the uncertainty stated by the source.

The data set can be described thus: amyloid nucleation score (Sup35N fusion, yeast selection) (log enrichment); library NNK1; higher = more nucleation; inactive = no reads after selection. Summed up: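 For the nucleation score, DiMSum gave the log enrichment of output over input reads, centred on the mode score of non-aggregating sequences. Psi-negative yeast expressing Sup35N fused to peptides of 20 random codons were induced with 100 μM copper sulfate for 24 hours and grown 7 days at 30°C on medium lacking adenine and uracil. Input and output plasmid inserts were Illumina-sequenced, and sequences with under 100 input reads were excluded.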
The substance GHIHFWASRDLPTKCHILGL registered an amyloid nucleation score of -0.181 ± 0.67.

On to GHLNQCGLNL, for which the amyloid nucleation score is -0.136 ± 0.38.

In the case of GHLSA, the amyloid nucleation score entry was “inactive”.

In turn, GHNLRLWCCNEADHFFRAQR showed an amyloid nucleation score of -1.16 ± 1.9.

GHYKGECYSLMNPV had an amyloid nucleation score of -0.067 ± 1.2.

For GICLKMYYVSACWESNVDTI, the amyloid nucleation score is 1.88 ± 0.18.

In turn, GIGHELFSNWVMEQLA yielded an amyloid nucleation score of -0.23 ± 0.35.

The substance GIKAIKCDEPSCAVLGLNSS gave an amyloid nucleation score of -0.536 ± 0.5.

As for GIMSRDGKICMVSV, the amyloid nucleation score was -0.091 ± 0.81.

Regarding GIRKKVPIVVCNIFQFECKR, the amyloid nucleation score turned out to be 2.51 ± 0.1.

GISFP came in with an amyloid nucleation score of -0.737 ± 0.31.

Substance GIYGQWTQ displayed an amyloid nucleation score of 0.697 ± 0.85.

As for GKIRSKKGQSLGQNT, the amyloid nucleation score was -1.16 ± 1.2.

GKQGRIQDSVYDWCCCNLSG gave an amyloid nucleation score of 0.255 ± 1.2.

With GKRDRMLQQIGWKLTYRCWN, the amyloid nucleation score is 0.522 ± 0.66.

GKSILVVSFARKLF displayed an amyloid nucleation score of -0.18 ± 1.2.

Substance GKSKAAQFN registered an amyloid nucleation score of -0.318 ± 0.31.

GKSWLSMKNQISINRRSMIP came in with an amyloid nucleation score of -0.449 ± 0.5.

The substance GKVAPFRDSGNIIADGNIHE displayed an amyloid nucleation score of -0.219 ± 0.47.

As to GKVFVCSIVYSIRMSITSRI, the amyloid nucleation score entry was “inactive”.

GKWPRRSW showed an amyloid nucleation score of 0.376 ± 1.1.

With GLCFDARLLEL, the amyloid nucleation score was -1.87 ± 2.7.

As for GLCVMSYTVDSLLCKGIFR, the amyloid nucleation score result is “inactive”.

GLDLMSVRWGKTMAPSSLWW registered an amyloid nucleation score of 4.63 ± 0.12.

For the substance GLDRTHYPFALNGCLLSTVS, the amyloid nucleation score is 0.676 ± 0.55.

The substance GLELLAGVIHSWVRGSGALW had an amyloid nucleation score of -0.868 ± 0.84.

GLEWGGVKTQMKSWTMRMGG gave an amyloid nucleation score of -1.4 ± 1.6.

The substance GLGCSSLCQLMN gave an amyloid nucleation score of 0.983 ± 0.56.

With GLGLHWSEASFRLRMDRRFA, the amyloid nucleation score was determined as 3.79 ± 0.069.

Consider GLGMSRPYGSAPTRPDQNKI, for which the amyloid nucleation score came out at 0.275 ± 1.1.

The substance GLGRSLKGHIMTAMRCMQGV yielded an amyloid nucleation score of -0.691 ± 0.44.

As to GLILNNLSWAHWPPGGSMWL, the amyloid nucleation score stood at 2.72 ± 0.17.

Take GLKNFWM: the amyloid nucleation score was -1.55 ± 1.9.

GLLIVGRRYLGGADVDIHEE gave an amyloid nucleation score of 0.713 ± 0.68.

Substance GLNLRCSNTREGKVWNRTW yielded an amyloid nucleation score of -0.37 ± 0.47.

GLNYLNFTREYYHLTWVVVP registered an amyloid nucleation score of 4.47 ± 0.091.

GLRCFCTFHCMWFVLNSSN registered an amyloid nucleation score of 0.025 ± 0.34.

Substance GLRYFKLLLSEGSR displayed an amyloid nucleation score of -0.209 ± 1.

Turning to GLRYSVYNCFLVCRGRREWP, the amyloid nucleation score came out at 5.54 ± 0.057.

Turning to GLSAEYFHFPVKRAVSMTLV, the amyloid nucleation score is -0.049 ± 0.6.

Consider GLSGYSRVFMTADDVGVRVW, for which the amyloid nucleation score was -1.18 ± 1.5.

The substance GMRIGC displayed an amyloid nucleation score of 0.023 ± 0.95.

As for GMSDRQWYMTRTYCLSGPAV, the amyloid nucleation score was 0.134 ± 0.23.

In turn, GMVSIL had an amyloid nucleation score of -0.278 ± 1.2.

As for GNCPNT, the amyloid nucleation score was 0.367 ± 0.75.

On to GNFMNRCAFRRMGYSTISIN, for which the amyloid nucleation score came out at 1.35 ± 0.47.

Consider GNFMRLRWNVKFL, for which the amyloid nucleation score was -0.016 ± 0.72.

For the substance GNLSPSLCGHILLVTLIKGW, the amyloid nucleation score amounted to 0.291 ± 0.39.

With GNSFISV, the amyloid nucleation score is -0.088 ± 0.81.

In turn, GNSHMFIIAYSTYMLYTQTL had an amyloid nucleation score of 0.845 ± 0.55.

GNSMSHASTVKVFLAQLGGD displayed an amyloid nucleation score of -1.04 ± 2.1.

In the case of GNTVRYVKRMYY, the amyloid nucleation score was -0.056 ± 0.5.

Substance GNVKSTRWFESV gave an amyloid nucleation score of 0.72 ± 0.78.

Turning to GPGPCWKPITGGWRTRKFTR, the amyloid nucleation score came out at 0.61 ± 0.56.

Consider GPSRNGWFNATLGHTLLSNT, for which the amyloid nucleation score was found to be 0.638 ± 0.42.

For the substance GPVSGHRPIVRD, the amyloid nucleation score was -0.179 ± 1.1.

Consider GQAGGWTARGQSSDIDLGQR, for which the amyloid nucleation score was -0.146 ± 0.63.

GQDAPEDAMSVRRILVSGLA came in with an amyloid nucleation score of -0.109 ± 1.5.

GQIDGCGTRVNT gave an amyloid nucleation score of 2.17 ± 0.14.

In turn, GRCSKYCGFASATCMNGGVS showed an amyloid nucleation score of 0.032 ± 0.32.

With GRFGVGVWW, the amyloid nucleation score is 0.127 ± 0.46.

The substance GRHSWINGYKVEV had an amyloid nucleation score of 6.938 ± 0.055.

GRLFWVNVTLNLRDMNYSDM returned an amyloid nucleation score of 1.09 ± 0.5.

In turn, GRLGITSMMPLGCVINWPRG displayed an amyloid nucleation score of 3.02 ± 0.13.

GRSCKFCYVTWVVPEP showed an amyloid nucleation score of 1.25 ± 0.2.

Take GRTHEEYF: the amyloid nucleation score amounted to 0.048 ± 1.2.

GRTVPDYLMVRSATNIRYGF: the amyloid nucleation score is -1.19 ± 1.7.

The substance GRYTYDTMFTGWGASDELHI showed an amyloid nucleation score of 1.14 ± 0.97.

GSCVWFSGNRVPTFWWSGDS registered an amyloid nucleation score of -0.046 ± 0.31.

The substance GSDGVCFNKNLNSWIYMLST yielded an amyloid nucleation score of 0.805 ± 0.64.

Turning to GSDTNSNRLIMLMFGTVFCA, the amyloid nucleation score is 2.84 ± 0.16.

For the substance GSGYFDGVIFIYLT, the amyloid nucleation score was -1.11 ± 1.1.

As for GSHWPYDGWWISYLWFHLR, the amyloid nucleation score is 0.858 ± 0.38.

GSIPDCGIGICRYKLSGIMK returned an amyloid nucleation score of 0.047 ± 0.63.

In the case of GSLFYVRLLYRGCNTEITSK, the amyloid nucleation score was 0.925 ± 1.1.

The substance GSMLCGEVERMSECKESGGP had an amyloid nucleation score of -0.354 ± 0.48.

GSMLLHLIILSILFFDRVES displayed an amyloid nucleation score of 0.148 ± 0.29.

GSNFTKVCILPSLHRTLLVG gave an amyloid nucleation score of -0.222 ± 1.4.

As for GSNKRHSYTLVLSRNVYPSG, the amyloid nucleation score was 0.014 ± 0.49.

GSPLWLVVPVPGEHVSSLSL showed an amyloid nucleation score of -0.047 ± 0.36.

Substance GSRCRRLWDM yielded an amyloid nucleation score of -0.02 ± 0.55.

The substance GSRYLGTPFRDIMLHVAIRW yielded an amyloid nucleation score of 1.08 ± 0.57.

With GSSFI, the amyloid nucleation score was 0.127 ± 0.57.

On to GSSFVI, for which the amyloid nucleation score result was “inactive”.

With GSSMLHSFSFGGPALVCCVF, the amyloid nucleation score turned out to be 7.167 ± 0.055.

Substance GSTDGKGVTQRNYVNSILYV returned an amyloid nucleation score of 0.472 ± 0.78.

As to GSWGVRVFHFFARSRP, the amyloid nucleation score worked out at 0.032 ± 0.79.

Turning to GTCFCFITVSLLLVPVVLSD, the amyloid nucleation score was -1.02 ± 2.7.

Substance GTCTMTKSFMIDIF showed an amyloid nucleation score of 0.235 ± 0.25.

GTFSGQKLCYVCVSLSGFG gave an amyloid nucleation score of 0.005 ± 0.5.

In turn, GTFSGRKEL had an amyloid nucleation score of 0.463 ± 0.3.

GTGLVAMVAT registered an amyloid nucleation score of -1.24 ± 1.1.

For GTGRVLVIAKALNYCCIS, the amyloid nucleation score came to 6.811 ± 0.054.

For the substance GTLFYTDPLLCIVYLINLCR, the amyloid nucleation score was -0.33 ± 0.56.

Substance GTSLRSGWRYCEFTRRSCLV yielded an amyloid nucleation score of 0.068 ± 0.6.

Turning to GTSTHIIFGMAVSSVRRYHM, the amyloid nucleation score was 1.33 ± 0.33.

Substance GTTCGSLHRAWGLAKTGCNW showed an amyloid nucleation score of -0.388 ± 0.42.

GTTFIRLIYFVYMARTTTEF showed an amyloid nucleation score of -1.35 ± 1.1.

For the substance GTTLTDSVCYRGLNFPRLY, the amyloid nucleation score was -0.435 ± 1.9.

Consider GTYSKG, for which the amyloid nucleation score turned out to be 0.7 ± 0.97.

GVCVNVKLLNWFKSRGTSSR registered an amyloid nucleation score of 1.91 ± 0.38.

Take GVDLVSAIYGTSGHTVWMAF: the amyloid nucleation score was -0.054 ± 0.52.

Take GVEVAFDVLEETRQWPEYYR: the amyloid nucleation score was 1.49 ± 0.49.

As for GVGMAPATLGPETHEKSELM, the amyloid nucleation score stood at 0.282 ± 0.3.

Substance GVGRGCYSMACCSAGRLTDG returned an amyloid nucleation score of -0.122 ± 0.85.

On to GVHSTEKNEWTQTFQSGR, for which the amyloid nucleation score was -0.103 ± 0.98.

Turning to GVHYYHLASWTWISFLITRR, the amyloid nucleation score amounted to 0.424 ± 0.85.

On to GVLLLIQSGNCRWRRSSRAP, for which the amyloid nucleation score stood at 0.344 ± 0.65.

In the case of GVLSIVVKSR, the amyloid nucleation score is -2.2 ± 1.7.

Substance GVMCIMYNFSHYYLSVVNNR showed an amyloid nucleation score of 7.77 ± 0.083.

GVPYR showed an amyloid nucleation score of 0.044 ± 0.68.

GVRCRLLRIPFVSISRSGWR: the amyloid nucleation score came out at 0.743 ± 0.58.

With GVTMVISPPYVMAGRSDMFL, the amyloid nucleation score is -0.031 ± 0.65.

As to GVVGNTHQVPNRGRRSRFLL, the amyloid nucleation score was -1.54 ± 1.7.

Turning to GVWDGKRSYGSLQSWAFVPE, the amyloid nucleation score is -0.138 ± 0.41.

In turn, GVWVGIICKINLKYAFR displayed an amyloid nucleation score of 1.23 ± 0.34.

GWTCYLSVGRIRF yielded an amyloid nucleation score of 1.94 ± 0.11.

With GWTTYPSNN, the amyloid nucleation score worked out at 0.996 ± 0.37.

GYACYFSSSDYCWVAPHCGL came in with an amyloid nucleation score of 1.01 ± 0.14.

Regarding GYASAVVHHVGWNPTVGSLM, the amyloid nucleation score is -0.115 ± 0.42.

The substance GYCVLVTLLGNTNEYPAGCP came in with an amyloid nucleation score of 0.563 ± 0.41.

Turning to GYEDRRSRCSIWVVRFLNVL, the amyloid nucleation score is -0.605 ± 0.8.

On to GYEEFGVGRTSVPMETARLK, for which the amyloid nucleation score is -0.406 ± 0.44.

The substance GYFCGMDLCTKEGLTHYEY had an amyloid nucleation score of -0.736 ± 0.72.

GYFVSMSTDYSLSWRYICSA displayed an amyloid nucleation score of -1.16 ± 0.67.

Substance GYFVYYFLFIYCVFRVFSTL yielded an amyloid nucleation score of 4.82 ± 0.12.

GYHDGISMFSCVYSCYQSVS: the amyloid nucleation score amounted to 5.92 ± 0.061.

The substance GYLLCAG yielded an amyloid nucleation score of 0.549 ± 0.71.

For the substance GYMCLSL, the amyloid nucleation score turned out to be 0.395 ± 0.29.

The substance GYNFKRVSNFSVYGLVSYSN returned an amyloid nucleation score of 0.046 ± 1.6.

Substance GYRSIGASGTQDLSQVVLNK displayed an amyloid nucleation score of 0.901 ± 0.98.

For the substance HAEWGGDAKPTRYRRRNEAG, the amyloid nucleation score result is “inactive”.

Substance HAGLQRALTPQIRLFSGLAS had an amyloid nucleation score of -0.268 ± 1.4.

HAKNSRIYSWLFLCSIKWG registered an amyloid nucleation score of 0.396 ± 0.3.

HARTSRVRNDSSRAALNARW: the amyloid nucleation score is -0.392 ± 0.36.

HCMGRACPHS gave an amyloid nucleation score of 5.11 ± 0.11.

HCRPFFSVEINKCLSC displayed an amyloid nucleation score of 5.15 ± 0.1.

In turn, HCSSFNILRMNDNE gave an amyloid nucleation score of 0.398 ± 0.23.

Regarding HDLHFFHGVAARQNVRRAYR, the amyloid nucleation score is 0.724 ± 1.

The substance HDLTWVSTSESFFSLMGHAS had an amyloid nucleation score of -0.28 ± 0.29.
